Measured values from US20220354960A1, “IMMUNE CHECKPOINT BLOCKING BISPECIFIC MOLECULES” (THE SCRIPPS RESEARCH INSTITUTE, priority 2019, published 2022).

Assays:
[1] = molecular target: human MC1R on HEK293 cells that overexpress it (human) (UniProt Q01726); assay: cell-based or functional assay
[2] = molecular target: MC1R on B16-SIY cells (mouse) (UniProt Q01727); assay: cell-based or functional assay
[3] = molecular target: human PD-L1 (extracellular domain)-Fc fusion protein (human) (UniProt Q9NZQ7); assay: ELISA on human PD-L1 (extracellular domain)-Fc fusion protein
[4] = molecular target: human MC1R on HEK293 cells that overexpress it (human) (UniProt Q01726); assay: cell surface ELISA on fixed HEK293-MC1R cells
[5] = molecular target: human PD-L1 (extracellular domain)-Fc fusion protein (human) (UniProt Q9NZQ7); assay: ELISA, PD-L1-Fc coated, detection with HRP anti-human kappa light chain antibody

MC1R on B16-SIY cells (mouse), sequence (Q01727 whole entry, the tested form may be a part): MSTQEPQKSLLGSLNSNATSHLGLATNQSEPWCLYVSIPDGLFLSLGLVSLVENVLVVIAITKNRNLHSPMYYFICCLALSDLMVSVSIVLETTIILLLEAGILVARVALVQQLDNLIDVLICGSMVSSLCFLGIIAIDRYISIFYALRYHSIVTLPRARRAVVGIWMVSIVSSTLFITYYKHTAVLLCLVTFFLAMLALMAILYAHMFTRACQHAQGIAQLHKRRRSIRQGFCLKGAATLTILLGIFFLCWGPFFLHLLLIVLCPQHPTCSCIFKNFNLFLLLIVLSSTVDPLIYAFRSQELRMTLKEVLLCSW
human MC1R on HEK293 cells that overexpress it (human), sequence (Q01726 whole entry, the tested form may be a part): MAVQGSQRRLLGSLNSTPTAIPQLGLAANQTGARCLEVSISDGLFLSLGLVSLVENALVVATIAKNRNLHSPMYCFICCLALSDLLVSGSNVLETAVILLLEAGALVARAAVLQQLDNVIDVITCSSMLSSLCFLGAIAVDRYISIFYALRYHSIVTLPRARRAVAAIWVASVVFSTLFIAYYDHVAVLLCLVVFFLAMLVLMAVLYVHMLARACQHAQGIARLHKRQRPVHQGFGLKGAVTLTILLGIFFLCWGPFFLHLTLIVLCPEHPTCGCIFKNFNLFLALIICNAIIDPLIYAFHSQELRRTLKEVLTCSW
human PD-L1 (extracellular domain)-Fc fusion protein (human), sequence (Q9NZQ7 19-238): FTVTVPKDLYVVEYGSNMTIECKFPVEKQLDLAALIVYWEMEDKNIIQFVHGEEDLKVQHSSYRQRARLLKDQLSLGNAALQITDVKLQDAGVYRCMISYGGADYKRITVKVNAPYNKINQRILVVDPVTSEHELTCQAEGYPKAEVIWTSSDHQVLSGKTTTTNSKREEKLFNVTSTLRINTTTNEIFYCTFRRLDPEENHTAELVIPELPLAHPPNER

Row | Substance | CRE-Luc reporter in HEK 293 cells overexpressing MC1R, EC50 [1] | B16-SIY cells cAMP-Glo Assay, EC50 [2] | EC50 [3] | EC50 [4] | EC50 [5]
1 | NDP-MSH peptide ([Nle4, D-Phe7]-MSH) | 90 pM | 60 pM |  |  | 
2 | NDP-MSH-Synagis (control antibody Synagis conjugated at the heavy chain N-terminal serine to H2NO-NDP-MSH) |  | 60 pM |  |  | 
3 | NDP-MSH-αPD-L1 N-terminal conjugate (Atezolizumab with engineered heavy chain N-terminal serine and 8x(G4S) linker, oxime-ligated to H2NO-NDP-MSH, LAR 2) (bispecific antibody) |  | 20 pM | 87 pM |  | 
4 | NDP-MSH-αPD-L1 conjugate (Avelumab with NDP-MSH conjugated to lysines through BCN/PEG24, LAR about 3.5) (bispecific antibody) | 2700 pM |  |  | 1720 pM | 170 pM
